# Source: paper PMC5177656, “Cytosolic Triosephosphate Isomerase from Arabidopsis thaliana Is Reversibly Modified by Glutathione on Cysteines 127 and 218” (Frontiers in Plant Science, 2016)
# Substrate: O=CC(O)COP(=O)(O)O
# Assay: coupled assay with alpha-glycerophosphate dehydrogenase, NADH consumption
# Type: biochemical, Arabidopsis thaliana
# Conditions: pH 7.8, 30°C, 100 mM Tris-Cl, 5 mM DTT, GAP 0-4 mM (from DL-GAP)
# Description: coupled assay with alpha-glycerophosphate dehydrogenase, NADH consumption on cTPI (cytosolic triosephosphate isomerase)
Protein,Km [mM],kcat [s⁻¹],kcat/Km [M⁻¹ s⁻¹]
"cTPI (cytosolic triosephosphate isomerase) (Arabidopsis thaliana) (protein, tag removal not mentioned) MARKFFVGGNWKCNGTAEEVKKIVNTLNEAQVPSQDVVEVVVSPPYVFLPLVKSTLRSDFFVAAQNCWVKKGGAFTGEVSAEMLVNLDIPWVILGHSERRAILNESSEFVGDKVAYALAQGLKVIACVGETLEEREAGSTMDVVAAQTKAIADRVTNWSNVVIAYEPVWAIGTGKVASPAQAQEVHDELRKWLAKNVSADVAATTRIIYGGSVNGGNCKELGGQADVDGFLVGGASLKPEFIDIIKAAEVKKSA",1.32 ± 0.06,3410 ± 269,2.58e+06 ± 321000
"cTPI (cytosolic triosephosphate isomerase) (Arabidopsis thaliana; C218S) (protein, tag removal not mentioned) MARKFFVGGNWKCNGTAEEVKKIVNTLNEAQVPSQDVVEVVVSPPYVFLPLVKSTLRSDFFVAAQNCWVKKGGAFTGEVSAEMLVNLDIPWVILGHSERRAILNESSEFVGDKVAYALAQGLKVIACVGETLEEREAGSTMDVVAAQTKAIADRVTNWSNVVIAYEPVWAIGTGKVASPAQAQEVHDELRKWLAKNVSADVAATTRIIYGGSVNGGNSKELGGQADVDGFLVGGASLKPEFIDIIKAAEVKKSA",1.68 ± 0.03,2690 ± 73,1.6e+06 ± 72000
"cTPI (cytosolic triosephosphate isomerase) (Arabidopsis thaliana; C127S/C218S) (protein, tag removal not mentioned) MARKFFVGGNWKCNGTAEEVKKIVNTLNEAQVPSQDVVEVVVSPPYVFLPLVKSTLRSDFFVAAQNCWVKKGGAFTGEVSAEMLVNLDIPWVILGHSERRAILNESSEFVGDKVAYALAQGLKVIASVGETLEEREAGSTMDVVAAQTKAIADRVTNWSNVVIAYEPVWAIGTGKVASPAQAQEVHDELRKWLAKNVSADVAATTRIIYGGSVNGGNSKELGGQADVDGFLVGGASLKPEFIDIIKAAEVKKSA",0.50 ± 0.06,14.8 ± 0.8,29600 ± 5200
"cTPI (cytosolic triosephosphate isomerase) (Arabidopsis thaliana; C127S) (protein, tag removal not mentioned) MARKFFVGGNWKCNGTAEEVKKIVNTLNEAQVPSQDVVEVVVSPPYVFLPLVKSTLRSDFFVAAQNCWVKKGGAFTGEVSAEMLVNLDIPWVILGHSERRAILNESSEFVGDKVAYALAQGLKVIASVGETLEEREAGSTMDVVAAQTKAIADRVTNWSNVVIAYEPVWAIGTGKVASPAQAQEVHDELRKWLAKNVSADVAATTRIIYGGSVNGGNCKELGGQADVDGFLVGGASLKPEFIDIIKAAEVKKSA",0.48 ± 0.04,70.4 ± 7.4,147000 ± 28000
